Assay results published in PMC4618531 (BMC Microbiology, 2015).

What was measured:
RsFabG2 = target: T1, RsFabG2 (Ralstonia pseudosolanacearum, UniProt Q8XSV8); conditions: 50 μM NADPH, malonyl-ACP plus octanoyl-ACP or tetradecanoyl-ACP, 0.1 M sodium phosphate pH 7.0, 37 °C
T1 construct: gene fabG2

[1] = target: Ralstonia solanacearum FabG2 (3-ketoacyl-ACP reductase, RSp0359), N-terminal hexahistidine-tagged (Ralstonia solanacearum GMI1000); experiment: SEC
[2] = target: Ralstonia solanacearum FabG1 (3-ketoacyl-ACP reductase, RSc1052), N-terminal hexahistidine-tagged (Ralstonia solanacearum GMI1000); experiment: SEC
purified protein [3] = substrate: CC(=O)CC(=O)SCCNC(=O)CCNC(=O)[C@H](O)C(C)(C)COP(=O)(O)OP(=O)(O)OC[C@H]1O[C@@H](n2cnc3c(N)ncnc32)[C@H](O)[C@@H]1OP(=O)(O)O; experiment: purified protein; conditions: 200 μM NADPH, 0.1 M sodium phosphate pH 7, 0.1 M LiCl
purified protein [4] = substrate: NC(=O)C1=CN([C@@H]2O[C@H](COP(=O)(O)OP(=O)(O)OC[C@H]3O[C@@H](n4cnc5c(N)ncnc54)[C@H](OP(=O)(O)O)[C@@H]3O)[C@@H](O)[C@H]2O)C=CC1; experiment: purified protein; conditions: 200 μM acetoacetyl-CoA, 0.1 M sodium phosphate pH 7, 0.1 M LiCl, varied: cofactor

NC(=O)C1=CN([C@@H]2O[C@H](COP(=O)(O)OP(=O)(O)OC[C@H]3O[C@@H](n4cnc5c(N)ncnc54)[C@H](OP(=O)(O)O)[C@@H]3O)[C@@H](O)[C@H]2O)C=CC1 [NADPH]
reconstituted 3-ketoacyl-ACP reduction with EcFabB and EcFabZ, urea gel (RsFabG2): Upon the addition of NADPH, a 3-ketoacyl-ACP reductase (EcFabG, RsFabG1 or RsFabG2) and EcFabZ

Ralstonia solanacearum FabG2 (3-ketoacyl-ACP reductase, RSp0359), N-terminal hexahistidine-tagged (enzyme)
stoichiometry N [1]: 4

Ralstonia solanacearum FabG1 (3-ketoacyl-ACP reductase, RSc1052), N-terminal hexahistidine-tagged (enzyme)
stoichiometry N [2]: 4

B1: EcFabG (Escherichia coli K-12) (protein)
chain: MNFEGKIALVTGASRGIGRAIAETLAARGAKVIGTATSENGAQAISDYLGANGKGLMLNVTDPASIESVLEKIRAEFGEVDILVNNAGITRDNLLMRMKDEEWNDIIETNLSSVFRLSKAVMRAMMKKRHGRIITIGSVVGTMGNGGQANYAAAKAGLIGFSKSLAREVASRGITVNVVAPGFIETDMTRALSDDQRAGILAQVPAGRLGGAQEIANAVAFLASDEAAYITGETLHVNGGMYMV
Km (purified protein [3]): 4372.6 ± 105.1 µM | Vmax (purified protein [3]): 97 µmol/min/mg | kcat (purified protein [3]): 45.28 ± 4.3 s⁻¹ | Km (purified protein [4]): 5.41 ± 1.3 µM | Vmax (purified protein [4]): 3.54 µmol/min/mg | kcat (purified protein [4]): 1.65 ± 0.43 s⁻¹
